How the values were obtained:
NZF-1-F2F3 H559Q = test: fluorescence anisotropy; conditions: not given in the material (ESI)
NZF-1-F2F3 H515Q = test: fluorescence anisotropy; conditions: not given in the material (ESI)

Question: How did the Kd (NZF-1-F2F3 H559Q) turn out when βRAR DNA was run?
Answer: 3.7 µM

Question: What about the Kd (NZF-1-F2F3 H515Q) of the same substance?
Answer: 3 µM
